Assay results taken from article PMC3975500 (Cell Research, 2014).

T1: Lsm7 (full length), subunit of the crystallized Lsm1-7 complex (S. cerevisiae, UniProt P53905 1-115)
T1 sequence: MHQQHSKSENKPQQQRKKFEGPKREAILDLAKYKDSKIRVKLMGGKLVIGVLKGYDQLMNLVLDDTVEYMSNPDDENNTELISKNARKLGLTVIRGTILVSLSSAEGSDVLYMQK

T2: Lsm1-7 heptamer (Saccharomyces cerevisiae, UniProt P47017;P38203;P57743;P40070;P40089;Q06406;P53905 …)
T2 sequence 1: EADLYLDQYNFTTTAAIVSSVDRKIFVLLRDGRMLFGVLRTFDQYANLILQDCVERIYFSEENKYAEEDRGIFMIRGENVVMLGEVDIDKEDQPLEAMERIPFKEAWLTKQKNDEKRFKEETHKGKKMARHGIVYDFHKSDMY
T2 sequence 2: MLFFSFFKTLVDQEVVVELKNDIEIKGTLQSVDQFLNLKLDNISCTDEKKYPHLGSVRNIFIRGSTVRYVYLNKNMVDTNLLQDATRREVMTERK
T2 sequence 3: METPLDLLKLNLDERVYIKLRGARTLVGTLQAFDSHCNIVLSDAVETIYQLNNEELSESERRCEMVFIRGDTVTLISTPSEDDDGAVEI
T2 sequence 4: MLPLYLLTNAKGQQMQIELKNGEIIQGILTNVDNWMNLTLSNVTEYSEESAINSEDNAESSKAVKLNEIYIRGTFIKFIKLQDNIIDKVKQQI
T2 sequence 5: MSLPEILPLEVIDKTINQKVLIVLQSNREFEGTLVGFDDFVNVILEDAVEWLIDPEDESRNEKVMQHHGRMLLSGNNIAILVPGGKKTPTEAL
T2 sequence 6: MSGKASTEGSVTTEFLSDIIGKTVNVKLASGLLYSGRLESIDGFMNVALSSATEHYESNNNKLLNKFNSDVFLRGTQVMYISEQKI
T2 sequence 7: T1 sequence

B1: Lsm4 (residues 1-93), subunit of the crystallized Lsm1-7 complex (domain or fragment)
chain: T2 sequence 4
B2: Lsm6 (full length), subunit of the crystallized Lsm1-7 complex (natural protein)
chain: T2 sequence 6
B3: Lsm5 (full length), subunit of the crystallized Lsm1-7 complex (natural protein)
chain: T2 sequence 5

How the values were obtained:
[1] = molecular target: T1, Lsm7 (full length), subunit of the …; assay: crystal structure
[2] = molecular target: B3; assay: crystal structure
[3] = molecular target: T2, Lsm1-7 heptamer; assay: BLI

binding result [1]	Binder	other results
binds	B1	
	B2	binding result [2]: binds
	UUUUUUUU (ssRNA) [oligo-U (U8)]	Kd [3]: ~2000 nM
binds	B3	
